What was measured:
[1] = target: T1, Mre11 (S. cerevisiae, his-tagged at the C terminus) (S. cerevisiae, UniProt P32829 1-692); experiment: pull-down; MBP-Rif2 or MBP-Rif2-min (~5 ug, from Sf9 lysate) immobilised on amylose resin and washed; 1 ug Mre11, 500 ng Rad50 or 1 ug Xrs2 added for 1 h in 50 mM Tris-HCl pH 7.5, 200 mM NaCl, 0.2% NP40, 2 mM EDTA; eluted with 20 mM maltose; Western blot; settings: both partners purified
T1 construct: Mre11, Saccharomyces cerevisiae; also called Mre11-his; not shown: His tag, C-terminal, kept
T1 sequence (looked up): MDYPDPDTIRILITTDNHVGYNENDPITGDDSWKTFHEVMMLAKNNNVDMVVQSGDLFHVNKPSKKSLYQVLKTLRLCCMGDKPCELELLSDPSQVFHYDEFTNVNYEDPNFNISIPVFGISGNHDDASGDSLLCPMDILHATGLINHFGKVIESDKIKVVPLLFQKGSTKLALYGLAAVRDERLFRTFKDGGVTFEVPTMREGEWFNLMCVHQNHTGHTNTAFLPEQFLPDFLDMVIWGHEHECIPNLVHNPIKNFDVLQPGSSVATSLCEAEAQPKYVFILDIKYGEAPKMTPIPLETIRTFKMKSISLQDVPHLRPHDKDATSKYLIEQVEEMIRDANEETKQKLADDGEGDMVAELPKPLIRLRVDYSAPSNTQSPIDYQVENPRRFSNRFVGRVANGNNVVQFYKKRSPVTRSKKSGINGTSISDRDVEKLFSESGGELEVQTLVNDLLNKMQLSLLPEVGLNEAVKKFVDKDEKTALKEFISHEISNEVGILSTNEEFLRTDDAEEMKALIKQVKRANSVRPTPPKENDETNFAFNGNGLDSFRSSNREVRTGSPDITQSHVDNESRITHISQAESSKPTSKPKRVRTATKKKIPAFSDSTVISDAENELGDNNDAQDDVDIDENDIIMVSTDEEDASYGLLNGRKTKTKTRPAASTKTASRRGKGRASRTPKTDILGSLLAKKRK

[2] = target: T2, Rad50S (S. cerevisiae Rad50-K81I, FLAG-tagged at the C terminus) (S. cerevisiae, UniProt P12753 1-1312, K81I); experiment: pull-down; MBP-Rif2 or MBP-Rif2-min immobilised on amylose resin, washed with 1 M NaCl buffer then 150 mM NaCl; 750 ng Rad50 or Rad50-K81I added for 1 h at 4 °C in wash buffer with 150 mM NaCl; Western blot with anti-Rad50; settings: both partners purified
T2 construct: Rad50, Saccharomyces cerevisiae, K81I
T2 sequence (looked up): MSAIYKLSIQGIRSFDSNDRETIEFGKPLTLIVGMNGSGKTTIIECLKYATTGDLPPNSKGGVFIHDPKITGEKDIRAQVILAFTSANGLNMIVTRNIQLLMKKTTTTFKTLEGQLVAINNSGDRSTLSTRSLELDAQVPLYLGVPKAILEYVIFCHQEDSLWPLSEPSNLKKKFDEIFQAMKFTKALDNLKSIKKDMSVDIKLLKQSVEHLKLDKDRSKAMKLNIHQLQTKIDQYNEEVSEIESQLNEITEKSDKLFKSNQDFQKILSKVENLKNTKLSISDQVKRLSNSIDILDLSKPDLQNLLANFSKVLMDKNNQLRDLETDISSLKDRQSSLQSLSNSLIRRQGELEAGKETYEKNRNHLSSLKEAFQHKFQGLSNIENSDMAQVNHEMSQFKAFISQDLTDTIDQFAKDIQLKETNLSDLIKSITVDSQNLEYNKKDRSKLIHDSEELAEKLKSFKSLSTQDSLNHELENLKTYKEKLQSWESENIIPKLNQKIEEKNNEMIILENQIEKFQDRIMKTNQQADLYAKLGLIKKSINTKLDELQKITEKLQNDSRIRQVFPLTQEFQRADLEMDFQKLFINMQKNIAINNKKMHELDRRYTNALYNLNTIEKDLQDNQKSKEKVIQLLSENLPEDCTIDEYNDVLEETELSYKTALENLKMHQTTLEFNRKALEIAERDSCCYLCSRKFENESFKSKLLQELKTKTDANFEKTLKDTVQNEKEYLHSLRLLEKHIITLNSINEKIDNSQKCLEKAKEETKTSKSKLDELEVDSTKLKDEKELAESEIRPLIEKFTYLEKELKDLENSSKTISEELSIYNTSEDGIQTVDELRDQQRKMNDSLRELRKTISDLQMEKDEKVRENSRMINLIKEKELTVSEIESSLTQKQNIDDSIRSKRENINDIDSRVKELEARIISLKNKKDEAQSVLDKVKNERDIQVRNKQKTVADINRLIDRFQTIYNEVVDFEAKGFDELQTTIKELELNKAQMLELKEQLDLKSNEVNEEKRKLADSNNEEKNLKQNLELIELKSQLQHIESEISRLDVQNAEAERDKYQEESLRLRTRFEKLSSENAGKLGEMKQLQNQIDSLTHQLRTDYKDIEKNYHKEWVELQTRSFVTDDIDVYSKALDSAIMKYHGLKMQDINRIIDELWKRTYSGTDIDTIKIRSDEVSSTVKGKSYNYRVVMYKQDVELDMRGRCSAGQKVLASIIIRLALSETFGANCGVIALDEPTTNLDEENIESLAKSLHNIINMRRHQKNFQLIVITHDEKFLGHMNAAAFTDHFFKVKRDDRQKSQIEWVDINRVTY

B1: MBP-Rif2 (S. cerevisiae Rif2, wild type) (natural protein, UniProt Q06208 1-395, looked up)
chain: MEHVDSDFAPIRRSKKVVDSDKIVKAISDDLEQKNFTVLRKLNLVPIKKSVSSPKVCKPSPVKERVDHVFYQKFKSMALQELGTNYLSISYVPSLSKFLSKNLRSMKNCIVFFDKVEHIHQYAGIDRAVSETLSLVDINVVIIEMNDYLMKEGIQSSKSKECIESMGQASYSGQLDFEASEKPSNHTSDLMMMVMRKINNDESIDHIVYFKFEQLDKLSTSTIIEPSKLTEFINVLSVLEKSNNIAFKVLIYSNNVSISSLLSTSLKKKLNTKYTVFEMPILTCAQEQEYLKKMIKFTFDSGSKLLQSYNSLVTCQLNNKESNLAIFFEFLKVFPHPFTYLFNAYTEIIVQSRTFDELLDKIRNRLTIKNYPHSAYNFKKNQRLPLKLTRKVHDR
notes: Rif2, Saccharomyces cerevisiae, full length, expressed from the vector pFB-MBP-Rif2-his; MBP was cleaved with PreScission protease only after elution from the resin; N-terminal place of MBP is read from the construct's name MBP-Rif2-his; also called ScRif2; not shown: MBP, N-terminal, kept
Question: Does B1 bind [1]?
Answer: binds

Question: Does B1 bind [2]?
Answer: binds

B2: MBP-Rif2-min (S. cerevisiae Rif2 F8E P10N) (natural protein, UniProt Q06208 1-395, looked up)
chain: MEHVDSDEANIRRSKKVVDSDKIVKAISDDLEQKNFTVLRKLNLVPIKKSVSSPKVCKPSPVKERVDHVFYQKFKSMALQELGTNYLSISYVPSLSKFLSKNLRSMKNCIVFFDKVEHIHQYAGIDRAVSETLSLVDINVVIIEMNDYLMKEGIQSSKSKECIESMGQASYSGQLDFEASEKPSNHTSDLMMMVMRKINNDESIDHIVYFKFEQLDKLSTSTIIEPSKLTEFINVLSVLEKSNNIAFKVLIYSNNVSISSLLSTSLKKKLNTKYTVFEMPILTCAQEQEYLKKMIKFTFDSGSKLLQSYNSLVTCQLNNKESNLAIFFEFLKVFPHPFTYLFNAYTEIIVQSRTFDELLDKIRNRLTIKNYPHSAYNFKKNQRLPLKLTRKVHDR
notes: Rif2, Saccharomyces cerevisiae, full length, F8E P10N, expressed from the vector pFB-MBP-Rif2-min-his; MBP was cleaved with PreScission protease only after elution from the resin; N-terminal place of MBP is read from the construct's name; also called mutant Rif2; not shown: MBP, N-terminal, kept
Question: Does B2 bind [1]?
Answer: binds

Question: Does B2 bind [2]?
Answer: binds

From article PMC8219681, “Inhibition of MRN activity by a telomere protein motif” (Nature Communications, 2021)
